# Laboratory results as given in patent US20030124571A1, “Novel human septin and uses therefor” (The Government of the United States of America, priority 2000, published 2003).
# B1: ARTS: Apoptosis Related protein in the TGF-β Signaling pathway; 274 amino acid human septin, SEQ. ID. NO: 2, expressed by transfection (protein, listed as Homo sapiens)
# chain: MIKRFLEDTTDDGELSKFVKDFSGNASCHPPEAKTWASRPQVPEPRPQAPDLYDDDLEFRPPSRPQSSDNQQYFCAPAPLSPSARPRSPWGKLDPYDSSEDDKEYVGFATLPNQVHRKSVKKGFDFTLMVAGESGLGKSTLVNSLFLTDLYRDRKLLGAEERIMQTVEITKHAVDIEEKGVRLRLTIVDTPGFGDAVNNTECWKPVAEYIDQQFEQYFRDESGLNRKNIQDNRVHCCLYFISPFGHGYGPSLRLLAPPGAVKGTGQEHQGQGCH
# notes: Apoptosis Related protein in the TGF-β Signaling pathway; ID; NO: 2, expressed by transfection
# B2: ARTS-AU5: AU5 tagged construct containing the entire ARTS coding sequence in pCEF-AU5 vector (protein)
# chain: B1 chain
# modifications: left off: small tags and cut ends
# Assays:
# caspase 3 = test: Caspase 3 fluorescent activity assay with aldehyde inhibitor, all cells examined; format: cell-based
# Experimental: (§1) Cells were seeded to 50% confluence in six-well plates in media containing 10% fetal calf serum overnight. Following 24 hours after transfection, cells media was changed to contain 1% fetal calf serum with or without 10 ng/ml TGF-β for additional 24 hours. Cells were treated with caspase 3 aldehyde inhibitor (Ac-DEVD-CHO) supplied with caspase 3 fluorescent activity kit according to the manufacturers' protocols (Pharmingen, San-Diego, Calif.). Results were read using FL-600 microplate fluorescence reader (Bio-Tek).
# NRP-154 cells [1] = test: Annexin-V apoptosis of GFP-sorted transfected NRP-154 cells; format: cell-based, rat; details: NRP-154 cells overexpressing ARTS
# Experimental: (§2) Cells were seeded to 50% confluence in six-well plates in DMEM-F12 containing 10% fetal calf serum overnight.
# (§3) ARTS whole cDNA in PCMV-sport vector was isolated from a human fetal cDNA library in the pcmv-sport vector (Gibco BRL Life Technologies). This vector is different from AU5 tagged vector.
# (§4) The NRP-154 and M-NRP1 cells were cotransfected with a total of 2 μDNA, 1 μg ARTS-pcmv-sport and 1 μg a GFP vector (Clontech, Palo-Alto, Calif.), a marker for transfected cells, using Lipofectamine (Gibco BRL Life Technologies, Gaithersburg, Md.) or FuGENE 6 (Boehringer-Mannheim) according to the manufacturer's protocol.
# (§5) After 24 hours, cells media was changed to contain 1% fetal calf serum with or without 10 ng/ml TGF-β for an additional 24 hours.
# (§6) GFP-positive cells were sorted using FACS.
# (§7) The sorted population was stained with streptavidin-sulforhodamin.
# (§8) The number of apoptotic cells was measured using the TACS Annexin-V-biotin (Trevigen, Gaithersburg, Md.).
# caspase 3 in COS cells = test: Caspase 3 fluorescent activity assay, COS cells; format: cell-based, monkey; details: overexpression of construct, following treatment with TGF-β
# Experimental: as §1
# COS cells [2] = test: Apoptosis (nuclear fragmentation, immunofluorescence) of COS cells transfected with ARTS constructs; format: cell-based, monkey
# Experimental: A C-terminal deletion construct lacking the last 24 amino acids of the ARTS protein was constructed and its apoptotic activity in COS cells was examined. […] Thus, the truncated construct is both more rapid in translocating to the nucleus and in inducing apoptosis in response to TGF-β.
# COS cells were cultured as desribed previously (Section E, above) and cotransfected with either empty empty AU5 vector (based on pcDNA3 vectors provided by Dr. Silvio Gukind) or ARTS-AU5 with X-vector. ARTS-AU5 was prepared as desribed above. X-vector is a general term to describe any other vector which was cotransfected together with ARTS to asses its effect on ARTS activity.
# 24 hours after transfection, cell media was changed to contain 1% fetal calf serum with or without 10 ng/ml TGF-β and the cells were incubated for another 24 hours. The cells were then washed twice with PBS and fixed with 4% paraformaldehyde in PBS. Cells were blocked with 5% BSA in PBS for 30 minutes, then incubated with anti-AU5 fluroescein antibodies (Babco, Richmond, Calif.). The cells were also counterstained with DAPI for counting of fragmented nuclei.
# [3] = system: caspase 3 in NRP-154 cells; test: Caspase 3 fluorescent activity assay, NRP-154 cells; format: cell-based, rat; details: 10 ng/ml TGF-β 24 hours
# Experimental: as §1
# caspase 3 in A549 cells = test: Caspase 3 fluorescent activity assay, A549 cells; format: cell-based, human; details: overexpression of ARTS, following TGF-β treatment
# Experimental: as §1
# [4] = system: 3TP-Lux promoter construct in NRP-154 cells; test: p3TP-Lux reporter luciferase assay with ARTS cotransfection, NRP-154 cells; format: cell-based, rat; details: 10 ng/ml TGF-β 24 hours
# Experimental: (§9) NRP-154 and FaO cells were seeded to 50% confluence in six-well plates in DMEM-F12 or DMEM, respectively, containing 10% fetal calf serum overnight.
# (§10) Antisense- and sense-ARTS were generated by PCR using ARTS cDNA containing the 5′UTR of ARTS as a template. The PCR fragments were subcloned into the Bam H1-Eco R1 sites of pcDNA3 vector containing the Pcmv promotor (invitrogen, Carlsbad, Calif.).
# (§11) NRP-154 cells and FaO cells were transfected with lug/sample p3TP-Lux reporter (a gift from Dr. Joan Massague), which contains 3 repeats of an AP-1 site from the collagenase promoter linked to a short region of the PAI-1 promoter along with equal concentrations of either pcDNA3 control vector (PGL2 vector commercially available from Promega, Madison, Wis.) or the ARTS-pcDNA3 construct, described above.
# (§12) The cells were then treated with 10 ng/ml TGF-β for 24 hours.
# (§13) After 24 hours, a cell lysate was prepared essentially as described in Part C, above.
# (§14) Luciferase activity was determined in the cell lysate using an assay kit (BD Pharmingen, San Diego, Calif.), and a MLX Microtiter plate luminometer (Dynex Technologies, Chantilly, Va.). […]
# (§15) Experiments were repeated three times with similar results. The results are expressed as the mean (±SEM) of duplicate luciferase assay, corrected for transfection efficiency.
# [5] = system: 3TP-Lux promoter construct in FaO rat hepatoma cells; test: p3TP-Lux reporter luciferase assay with ARTS cotransfection, FaO cells; format: cell-based; details: 10 ng/ml TGF-β 24 hours
# Experimental: as §9, §10, §11, §12, §13, §14, §15
# COS cells [6] = test: TUNEL assay of transfected COS cells; format: cell-based, monkey; details: transfected COS cells, 10 ng/ml TGF-β for 24 hours
# Experimental: COS cells were cultured as previously described (Section E, above). […] When these cells are transfected with ARTS and treatment with TGF-β they are induced to cell death.
# COS cells were then transfected with control vector or wildtype ARTS, essentially as described above, and treated with 10 ng/ml TGF-β for 24 hours.
# The apoptotic response of COS cells to TGF-β was assessed by a TUNEL assay ([…], now Roche, Indianapolis, Ind.) following the manufacturer's instructions.
# COS cells were cultured and transfected, as described above, with equal concentrations of either pcDNA3 control vector, ARTS or M-ARTS-pcDNA3 using the Lipofectamine transfection reagent (Gibco BRL Life Technologies, Gaithersburg, Md.). The cells were treated with 1 o ng/ml TGF-β for 24 hours.
# Apoptosis was examined in a TUNEL assay (Boehringer-Mannheim), according to the manufacturer's instructions.
# M-NRP1 cells = test: Annexin-V apoptosis of GFP-sorted transfected M-NRP1 cells; format: cell-based, rat; details: M-NRP1 cells transfected with wildtype ARTS, 10 ng/ml TGF-β 24 hours
# Experimental: as §2, §3, §4, §5, §6, §7, §8
# NRP-154 cells [7] = test: Immunofluorescence localization / nuclear translocation of ARTS constructs in NRP-154 cells; format: cell-based, rat; details: following TGF-β treatment
# Experimental: (§16) NRP-154 and COS cells were cultured and transfected as described above, and transfected with an ARTS-AU5 tagged construct, essentially as described in Part D, above. The cells were then treated with 10 ng/ml TGF-β.
# (§17) An immunofluorescence assay was performed essentially as described in Part G2, above using anti-AU5 antibodies (commercially available Babco, Richmond, Calif.). Anti-AU5 FITC-conjugated secondary antibodies (Pierce) were used to detect transfected ARTS.
# COS cells [8] = test: Immunofluorescence localization / nuclear translocation of ARTS constructs in COS cells; format: cell-based, monkey; details: in response to treatment with TGF-β
# Experimental: as §16, §17
molecule,measurement,setting,value
Ac-DEVD-CHO,TGF-β induced caspase activity,caspase 3,inbitited the TGF-β induced caspase activity
B1,effect on TGF-β induced apoptosis,NRP-154 cells [1],lack of effect
same,activation of caspase 3,caspase 3 in COS cells,marked increase in the activation of caspase 3
same,percent transfected apoptotic cells,"COS cells [2]; COS cells, within 1 hour of TGF-β treatment",18%
same,induction of apoptosis by overexpression alone,"COS cells [2]; COS cells, without TGF-β",does not induce apoptosis
same,induction of apoptosis in transfected cells,COS cells [2]; cells treated with TGF-β,increased basal level and TGF-β-induced level of apoptosis
same,caspase 3 activity,[3],no further effect
same,caspase 3 activity,caspase 3 in A549 cells,marked increase in caspase 3 activity
same,basal and TGF-β-induced luciferase activity (3TP-Lux),[4],increased
same,basal and TGF-β-induced luciferase activity (3TP-Lux),[5],increased
same,TUNEL staining / competence to undergo apoptosis,COS cells [6],strong TUNEL staining
same,sensitivity to TGF-β induced apoptosis,M-NRP1 cells,"restored, in part, the sensitivity"
B2,translocation to the nucleus,NRP-154 cells [7],translocates to from the mitochondria to the nucleus
same,translocation to / localization in the nucleus,COS cells [8],translocates to from the mitochondria to the nucleus
